Here are results for four molecules from article PMC8809517, “Cofactor-independent RNA editing by a synthetic S-type PPR protein”.

What all share (test): high-throughput RNA pulldown from lysate on Ni-NTA beads; HRP: 50 mM Tris pH 8, 150 mM NaCl, 1 mM beta-mercaptoethanol, 50 ug/ml BSA, 3 ug/ml yeast RNA, 0.5% heparin; ITC and FP: Tris pH 8, 200 mM KCl, 5% glycerol; MST: 50 mM Tris pH 8, 200 mM NaCl, 1 mM DTT, BSA, heparin, 0.05% Tween 20
What all share (conditions): tags: N-terminal His-eGFP

The target in series [1] is T1, GFP-9S library array, motif 4 ND N98L;D124Q (synthetic construct, N98L;D124Q).
T1 chain: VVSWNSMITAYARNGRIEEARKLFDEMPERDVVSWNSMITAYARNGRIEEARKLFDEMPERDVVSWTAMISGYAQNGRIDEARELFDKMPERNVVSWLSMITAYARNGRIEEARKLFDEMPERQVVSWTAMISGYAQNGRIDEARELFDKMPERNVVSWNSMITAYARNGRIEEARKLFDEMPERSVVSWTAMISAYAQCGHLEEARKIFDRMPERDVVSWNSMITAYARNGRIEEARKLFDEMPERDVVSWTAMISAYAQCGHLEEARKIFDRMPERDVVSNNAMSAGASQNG

Series [2] has as its target T2, GFP-9S library array, motif 4 ND N98Y;D124G (synthetic construct, N98Y;D124G).
T2 chain: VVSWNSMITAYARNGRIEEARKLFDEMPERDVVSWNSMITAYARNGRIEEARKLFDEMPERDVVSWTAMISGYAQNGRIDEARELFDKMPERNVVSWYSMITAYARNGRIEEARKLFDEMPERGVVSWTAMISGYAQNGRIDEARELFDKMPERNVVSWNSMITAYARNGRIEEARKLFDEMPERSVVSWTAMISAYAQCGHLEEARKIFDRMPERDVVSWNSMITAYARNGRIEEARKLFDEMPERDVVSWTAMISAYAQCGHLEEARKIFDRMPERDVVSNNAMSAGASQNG

Series [3] addresses T3, GFP-9S library array, motif 4 ND N98C;D124Q (synthetic construct, N98C;D124Q).
T3 chain: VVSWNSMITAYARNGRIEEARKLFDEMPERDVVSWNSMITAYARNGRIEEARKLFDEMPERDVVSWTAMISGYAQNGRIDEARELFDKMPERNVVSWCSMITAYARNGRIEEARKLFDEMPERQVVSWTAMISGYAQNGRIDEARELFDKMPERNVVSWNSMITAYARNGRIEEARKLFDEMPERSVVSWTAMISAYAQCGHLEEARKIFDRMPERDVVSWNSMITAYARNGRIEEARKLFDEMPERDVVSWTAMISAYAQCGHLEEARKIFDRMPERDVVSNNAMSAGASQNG

Series [4] deals with T4, GFP-9S library array, motif 4 ND N98A;D124I (synthetic construct, N98A;D124I).
T4 chain: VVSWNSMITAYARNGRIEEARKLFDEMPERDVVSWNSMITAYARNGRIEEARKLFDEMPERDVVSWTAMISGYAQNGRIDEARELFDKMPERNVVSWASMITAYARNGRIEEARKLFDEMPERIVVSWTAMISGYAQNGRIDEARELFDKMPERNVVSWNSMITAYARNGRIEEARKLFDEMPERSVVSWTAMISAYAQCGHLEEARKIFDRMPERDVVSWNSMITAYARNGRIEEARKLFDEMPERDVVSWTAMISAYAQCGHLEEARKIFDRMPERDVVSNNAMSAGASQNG

Series [5] concerns the target T5, GFP-9S library array, motif 4 ND D124L (synthetic construct, D124L).
T5 chain: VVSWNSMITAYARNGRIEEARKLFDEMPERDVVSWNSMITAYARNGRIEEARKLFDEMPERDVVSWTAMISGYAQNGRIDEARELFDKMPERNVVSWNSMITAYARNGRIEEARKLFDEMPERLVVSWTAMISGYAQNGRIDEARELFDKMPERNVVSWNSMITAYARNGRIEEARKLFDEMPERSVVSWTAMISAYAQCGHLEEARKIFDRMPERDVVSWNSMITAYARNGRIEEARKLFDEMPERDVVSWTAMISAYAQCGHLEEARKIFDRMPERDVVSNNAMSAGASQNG

For AUUAAACGUGA (ssRNA) [IR-rpoA-A], the Kd in series [1] (label: 5' IRDye 800CW) came to 80 nM; in series [2] (label: 5' IRDye 800CW), 567 nM; in series [3] (label: 5' IRDye 800CW), 177 nM; in series [4] (label: 5' IRDye 800CW), 203 nM; in series [5] (label: 5' IRDye 800CW), 291 nM.
With AUUAUACGUGA (ssRNA) [IR-rpoA-U], the Kd in series [1] (label: 5' IRDye 800CW) was 58.9 nM; in series [2] (label: 5' IRDye 800CW), 211 nM; in series [3] (label: 5' IRDye 800CW), 143 nM; in series [4] (label: 5' IRDye 800CW), 249 nM; in series [5] (label: 5' IRDye 800CW), 96.6 nM.
For the molecule AUUAGACGUGA (ssRNA) [Cy5-rpoA-G], the Kd was found to be 68.5 nM in series [1] (label: 5' Cy5); 177 nM in series [2] (label: 5' Cy5); 150 nM in series [3] (label: 5' Cy5); 107 nM in series [4] (label: 5' Cy5); 131 nM in series [5] (label: 5' Cy5).
Consider AUUACACGUGA (ssRNA) [Cy5-rpoA], for which the Kd in series [1] (label: 5' Cy5) came to 60 nM; in series [2] (label: 5' Cy5) it was 183 nM; in series [3] (label: 5' Cy5), 127 nM; in series [4] (label: 5' Cy5), 103 nM; in series [5] (label: 5' Cy5), 105 nM.
